The results in this text go back to patent US6072039, “Hybrid polypeptide comparing a biotinylated avidin binding polypeptide fused to a polypeptide of interest” (Rohm and Haas Company, dated 2000).

The target in assay [1] is T1, avidin monomer affinity resin (Gallus gallus (Chicken), UniProt P02701). Briefly: avidin monomer affinity column, formic acid cleavage mixture; by Procedure XI the polypeptide of interest is not retained and is collected in the column flowthrough. The method, then: (§1) The crude extract is applied to a 4 mm×5 cm column packed with avidin monomer affinity resin (U.S. Ser. No. 414,785) on a LKB HPLC system equipped with two Model 2150 pumps, Model 2152 controller, and a Model 2140 spectral detector. Sample absorbance is monitored at 280 nm. The crude extract is applied in 100 mM potassium phosphate buffer, pH 6.8 to 7.2 (or other appropriate buffer at a pH of 4.0 to 11.0) at a flow rate of 0.1 ml/min to a column equilibrated with the same buffer. After the sample is loaded, the column is washed with phosphate buffer at a flow rate of 1 ml/min until absorbance returned to the baseline absorbance, and all nonbound material is washed from the resin. The column is then equilibrated with water, followed by application of 5 ml of 2M NaCl. The column is reequilibrated with water. This same NaCl-water wash procedure is repeated four to five times. The sample is eluted using acetic acid or biotin, as detailed in Procedure IX.
Procedure XI. Separation of the Polypeptide of Interest from the Polypeptide for Attachment The dried polypeptide mixture is resuspended in avidin monomer column loading buffer, 100 mM phosphate buffer pH 6.8–7.2, or other appropriate buffer at a pH of between 4.0 and 11.0. Highly pure polypeptide of interest is obtained by passing the cleaved polypeptide mixture over the avidin resin using the procedure described above. […]

The target in assay [2] is T1, avidin monomer affinity resin. Description: avidin monomer affinity column, cyanogen bromide cleavage mixture; by Procedure XI the polypeptide of interest is not retained and is collected in the column flowthrough. How it is done:
as §1
The hybrid polypeptide is dissolved in 70% (v/v) aqueous formic acid at 23° C. A 50 molar excess of cyanogen bromide is added in a small volume of 70% formic acid, with stirring. The mixture is incubated in the dark under nitrogen at 20–25° C. for 16 to 24 hours. The mixture is then diluted with 10 volumes of water and freeze-dried. Highly pure polypeptide of interest is obtained by Procedure VIII.
Procedure XI. […]

B1: β-endorphin cleaved from the 1.3S:β-endorphin hybrid by formic acid (Example 2) (peptide)
peptide: PMYGGFLTSEKSQTPLVTLFKNAIIKNAYKKGE
Regarding B1, the binding result in assay [1] was “no binding”.

B2: β-endorphin cleaved from the hybrid polypeptide by cyanogen bromide (Examples 3 and 6) (peptide)
peptide: YGGFLTSEKSQTPLVTLFKNAIIKNAYKKGE
On to B2, for which, in assay [2], the binding result is “no binding”.
